The record followed here is a protein production outcome set (Wang et al. 2014).

This series can be described thus: label from the status in PepcDB records.
As for “MSLQVEGLSINLATIREQCGFAEAVDICLKHGITAIAPWRDQVAAIGLGEAGRIVRANGLKLTGLCRGGFFPAPDASGREKAIDDNRRAVDEAAELGADCLVLVAGGLPGGSKNIDAARRMVVEGIAAVLPHARAAGVPLAIEPLHPMYAADRACVNTLGQALDICETLGPGVGVAIDVYHVWWDPDLANQIARAGKMKAILAHHICDWLVPTKDMLTDRGMMGDGVIDLKGIRRRIEAAGFHGAQEVEIFSADNWWKRPADEVIATCVERYRNEGHHHHHH”, the protein production entry is given as “not failed”.
On to “MSLREVALKILIVEDDTDAREWLSTIISNHFPEVWSAGDGEEGERLFGLHAPDVIITDIRMPKLGGLEMLDRIKAGGAKPYVIVISAFSEMKYFIKAIELGVHLFLPKPIEPGRLMETLEDFRHIKLAKEGHHHHHH”, for which the protein production entry is “not failed”.
For the sequence “MSLRGSQLGTSRGLMLGGIDLAPVLMVLGLLLSGLGLSMLAPALVDLVVENRDWRAFLGSSVITLFCGMMLTLANWRMPLRFNIRQGFLMTALAWLTMSLFGSMPFMLATTGLDFAGAFFESVSGLTTTGATVISGLEHQPPGILFWRCLLHWIGGIGIIGMAIALLPALRVGGMQLFRTESSDTSEKGMNRIGELGLAITAVYLTLTVVIALGYIAVGMSVFDAICHAFGTVSTGGFSNWDTSLGHLDAAGLWMSTVGMMLGAMPFVLYVQVARGRPMDVVRDPQVQALTGFLVACWLVMALWQSLENGRPFLDALTASAFNITSVVTTTGYASEDYTLWGGFPQLFFFMITFAGGCTGSTSGGIKMFRYQVAYKVLSANIRRRYMPNAVIVSTYGGRAIDEDVAVSVVLFFFATGATTAIIALALTMVGLDWVTALTGTAAAIANVGPGLGTIVGPAGNYATLPDSAKWLLSLAMLMGRLEFFTLLVLFSRDFWKS”, the protein production entry was “failed”.
Then “MSLSALESSSRFEVRYFFERALECYKPFSDTVLLLPCTARKPYLTSRTHRALRSKVKVNVNEIIISSPLVVPREFELLYPAVNYDTPVTGHWSEEEVSFVAGWLKRFIEKGGFRKVVAHVTGGYRKVVERVEDEVEAEVVYTAEKDVLSDESIERLKQEIESKGKVDLYRRILEHMLSYQFGITWSGKVAGRYPELELLEGKKRLARVDRIYGMLDIYEKIAAYLLEKNIYTVEIGDFEVKGTIFAGGVLRADEKIRPNDVVVFHNSRIFGVGLAAMSGKEMAGSEKGIAINVKRKFSEGHHHHHH”, with “not failed”; and “MSLSASLGATRFRPDLLSLDDLDEAQLHALLTLAHQLKRGERVANLHGKVLGLVFLKASTRTRVSFTVAMYQLGGQVIDLSPSNTQVGRGEPVRDTARVLGRYVDGLAIRTFAQTELEEYAHYAGIPVINALTDHEHPCQVVADLLTIRENFGRLAGLKLAYVGDGNNVAHSLLLGCAKVGMSIAVATPEGFTPDPAVSARASEIAGRTGAEVQILRDPFEAARGAHILYTDVWTSMGQEAETQHRLQLFEQYQINAALLNCAAAEAIVLHCLPAHRGEEITDEVMEGPRSRIWDEAENRLHAQKAVLAALMGGREGHHHHHH”, with “not failed”; and “MSLSDRVKKIESFTLTLPRETPYLGKPRPGEEPNGRGYLVRKANRTVYPTFDRSVLVRIETENGAVGWGETYGLVAPRATMEIIDDLLADFTIGRDPFDAAAIHDDLYDLMRVRGYTGGFYVDALAAIDIALWDLAGKLAGLPVCKLLGGQRRDRIAAYISGLPEDTRAKRAELAAAWQAKGFSSFKFASPVADDGVAKEMEILRERLGPAVRIACDMHWAHTASEAVALIKAMEPHGLWFAEAPVRTEDIDGLARVAASVSTAIAVGEEWRTVHDMVPRVARRALAIVQPEMGHKGITQFMRIGAYAHVHHIKVIPHATIGAGIFLAASLQASAALANVDCHEFQHSIFEPNRRLLVGDMDCLNGEYVVPTGPGLGVEPSKEAQGLLKKHEGHHHHHH”, with “not failed”.
Regarding “MSLSELSPCHVRSGRIMTVDGPIPSSALGHTLMHEHLQNDCRCWWNPPQEPERQYLAEAPISIEILSELRQDPFVNKHNIALDDLDLAIAEVKQFAAVGGRSIVDPTCRGIGRDPVKLRRISAETGVQVVMGAGYYLASSMPETAARLSADDIADEIVAEALEGTDGTDARIGLIGEIGVSSDFTAEEEKSLRGAARAQVRTGLPLMVHLPGWFRLAHRVLDLVEEEGADLRHTVLCHMNPSHMDPVYQATLAQRGAFLEFDMIGMDFFYADQGVQCPSDDEVARAILGLADHGYLDRILLSHDVFVKMMLTRYGGNGYAFVTKHFLPRLRRHGLDDAALETLMVTNPRRVFDASIEGHHHHHH”, the protein production result is “not failed”.
